# Patent US11523990B2, “Non-covalent, self-organzing hydrogel matrix for biotechnological applications” (DENOVOMATRIX GMBH, priority 2012, dated 2022)
# “Also recorded” adds a separate entry of the source.
# Columns and labels:
# Type in all cases: physicochemical
# [1] = High-throughput centrifuge analysis of mechanical properties of the hydrogels (surface deformation, metal bead penetration); conditions: 5 mM peptide-starPEG + 5 mM 14-kDa-heparin
# Protocol: ATIII is a heparin-binding peptide known from the literature. All peptides are connected to a four-armed, maleimide functionalized 10-kDa-polyethylene glycol (starPEG). The hydrogel formation was tested in a 50 μI mixture, which contains 5 mM 14-kDa-heparin and 5 mM (2.5 mM) peptide-starPEG conjugate in phosphate buffer solution (1×PBS, pH 7.4). The deformation and penetration speed was analyzed through centrifuging the hydrogel in a 45° table centrifuge with 275 μm metal beads added to the surface. The deformation of the surface and the penetration of the metal beads were monitored in dependence on the applied force.
# A comparative high-throughput analysis was performed regarding the mechanical properties of the hydrogels. In order to provide a fast high-throughput method for comparing small amounts of hydrogel, a tabletop centrifuge (5424R, Eppendorf, Hamburg, Germany) was used. For this purpose, 50 μl of the hydrogel were formed by mixing the peptide-starPEG-conjugates and 14-kDa-heparin in phosphate buffer (1×PBS, pH 7.4) to a final concentration of 5 mM (once 2.5 mM for KA7-starPEG). The mixture was incubated in 0.2 ml reaction vessels overnight. The deformation of the hydrogel surface was determined in reference to the 45° centrifuge rotor and the penetration of 275 μm metal beads in dependence on the force that has to be produced by the centrifuge. All experiments were repeated three times.
# Hereby FIGS. 5A and B show a deformation of the surface of the 50 μl hydrogel in a 0.2 ml reaction tube, more specifically FIG. 5A below the speed required for deforming the surface, and FIG. 5B at the speed required for deforming the surface. FIG. 5C is a schematic representation of the penetration of a small spheres through 50 μl hydrogel in a 0.2 ml reaction tube depending on the force exerted by the 45° centrifuge.
# The hydrogels were formed by mixing peptide-starPEG-conjugate and 14-kDa-heparin at 5 mM final concentration in 50 μl phosphate buffer (1×PBS). The analysis was performed by centrifuging the hydrogels in a 45° tabletop centrifuge with 275 μm metal beads on the gel surface. The deformation of the surface and the penetration of the spheres were recorded in dependence on the exerted force.
# [2] = Stability of formed hydrogels against different solvents; conditions: 24° C., at least three days
# Protocol: In order to test the strength of the interaction between the peptide motif and the 14-kDa-heparin the formed hydrogels were tested with regard to different solvents. […] For this the peptide-starPEG-conjugates were mixed with 14 kDa-heparin in 50 μl in physiological phosphate buffer solution (1×PBS) to a final concentration of respectively 5 mM. Each solvent, i.e., physiological phosphate buffer solution (1×PBS), Milli-0-water, 1 M hydrochloric acid (HCl) 1 M sodium hydroxide solution (NaOH), saturated sodium chloride solution (NaCl), dimethyl sulfoxide (DMSO), ethanol and cell culture medium with 2% fetal bovine serum (FBS) were respectively added as 200 μl supernatant to the hydrogel. The hydrogel was incubated at a room temperature of 24° C. and the supernatants where exchanged every day for at least three days. All experiments were performed three times. Under none of the tested conditions the KA7-hydrogel could be destroyed. […] 2,2,2-trifuourethanlol (TFE) is known to destroy any type of secondary structures.
# [3] = Hydrogel formation in different solvents; conditions: 5 mM conjugate + 5 mM 14-kDa-heparin
# Protocol: Three respective different cases were tested in the hydrogel-formation stability test. […] The hydrogels were formed by mixing the final concentrations of respectively 5 mM peptide-starPEG-conjugate and 5 mM 14-kDa-heparin in 50 μl physiological phosphate buffer solution (1×PBS), Milli-Q-water or cell culture medium with 2% fetal bovine serum (FBS). The stability of the hydrogels was tested with the same solvent in which it was formed in 200 μl supernatant. The hydrogels were incubated at room temperature (24° C.), the supernatants were changed every day for at least three days in a row and the result after at least 3 days analyzed.
# [4] = Erosion experiment with TAMRA-marked 14-kDa-heparin; conditions: 5 mM conjugate + 5 mM TAMRA-heparin, cell culture medium with 2% FBS, 37° C.
# Protocol: Further, an erosion experiment was conducted. For this purpose peptide-starPEG-conjugates were respectively mixed with TAMRA-marked 14-kDa-heparin. For the erosion experiment the TAMRA-marked 14-kDa-heparin had to be synthesized beforehand. Hereby 14-kDa-heparin was marked with 5-(and-6)-carboxytetramethylrhodamin (TAMRA, Invitrogen) by using the 1-ethyl-3-(3-dimethylaminopropyl)carbodiimide/N-hydroxysulfosuccinimide-(EDAC/sNHS)-chemistry. Heparin, TAMRA, EDAC, sNHS and Na2CO3 were mixed at a ratio of 1:2:5:4:20 in water and incubated overnight. Thereafter the mixture was dialyzed for two days against 10 liters of water in a dialysis membrane with an exclusion limit of 8 kDa with constant exchange of water. The dialyzed product was filtered through a 0.22 μm polyvinylidene fluoride filter (PVDF-filter) and freeze-dried to a red product.
# Subsequently the peptide-starPEG-conjugates were respectively mixed with the TAMRA-labelled 14-kDa-heaprin in 50 μl cell culture medium to a final concentration of 5 mM. […] The fluorescence was measured at defined time points in the supernatant by using a plate reading device (BECKMAN COULTER […] Detection platform, BECKAMN COULTER, Brea, Calif., USA) and black 96-well-plates with clear bottom.
# Both peptides shoed without heparin a random coiled structure in Milli-Q-water. […] The fluorescence was measured in 200 μl of 1 ml supernatant. […]
sequence,measurement,setting,value
CWGGKAKAKAKAKA [KA5],Deformation speed,"[1]; 50 μl 1×PBS, 45° centrifuge",11223 +/- 4768 m/s^2
same,Penetration speed,[1]; 275 μm metal beads,21209 +/- 2188 m/s^2
same,Stability of hydrogel against supernatant,[2]; supernatant 1M HCl,only destroyed by 1 M HCl after more than one week incubation; also recorded: Stable; hydrogel was
same,Stability of hydrogel against supernatant,[2]; supernatant 1M NaOH,Stable
same,Stability of hydrogel against supernatant,"[2]; supernatant 1xPBS, 5 mM conjugate + 5 mM heparin gel",Stable
same,Stability of hydrogel against supernatant,[2]; supernatant Cell culture medium with 2% FBS,Stable
same,Stability of hydrogel against supernatant,[2]; supernatant DMSO,Stable
same,Stability of hydrogel against supernatant,[2]; supernatant Ethanol,Stable
same,Stability of hydrogel against supernatant,[2]; supernatant Saturated NaCl solution,Stable
same,Stability of hydrogel against supernatant,[2]; supernatant Water,Stable
same,Hydrogel formation in solvent,[3]; Cell culture medium with 2% FBS,formed
same,Hydrogel formation in solvent,"[3]; PBS, 50 μl, result after at least 3 days",formed
same,Hydrogel formation in solvent,[3]; water (Milli-Q),Formed
same,Heparin released from the hydrogel (erosion),[4],more erosion
